B1: ZBED2 (parent)
chain: FHLAPARAGHHPNQYATCRLCGRQ

Variants of: B1
Test: protein stability index of a GFP-peptide fusion (GPS, HEK-293T) (PSI 1-6); higher = more stable
Details: c terminus: a fixed tail appended
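Further: lentivirally expressed fusions sorted by FACS into six bins by GFP to DsRed ratio, PSI derived from sequencing read proportions per bin multiplied by bin number.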

Row | Variant | protein stability index
1 | FHLAPARAGHHPNQYATCHLCGRQ [R19H] | 2.05
2 | FHLAPARAGHHPNQYATCNLCGRQ [R19N] | 1.52
3 | FHLAPARAGHHPNQYATCTLCGRQ [R19T] | 1.81
4 | FHLAPARAGHHPNQYATCVLCGRQ [R19V] | 2.78
5 | FHLAPARAGHHPNQYATCYLCGRQ [R19Y] | 1.16
6 | FHLAPARAGHHPYQYATCRLCGRQ [N13Y] | 1.55
7 | FHLAPARAGHHPEQYATCRLCGRQ [N13E] | 3.21
8 | FHLAPARAGHHPKQYATCRLCGRQ [N13K] | 1.77
9 | FHLAPARAGHHPIQYATCRLCGRQ [N13I] | 1.42
10 | FHLAPARAGHHPTQYATCRLCGRQ [N13T] | 1.52
11 | FHLAPARAGHHINQYATCRLCGRQ [P12I] | 1.95
12 | FHLAPARAGHHCNQYATCRLCGRQ [P12C] | 2.67
13 | FHLAPARAGHHANQYATCRLCGRQ [P12A] | 1.5
14 | FHLAPARAGHHVNQYATCRLCGRQ [P12V] | 1.49
15 | FHLAPARAGHHGNQYATCRLCGRQ [P12G] | 2.48
16 | FHLAPARAGHHFNQYATCRLCGRQ [P12F] | 2.1
17 | FHLAPARAEHHPNQYATCRLCGRQ [G9E] | 1.97
18 | FHLAPARAHHHPNQYATCRLCGRQ [G9H] | 2.22
19 | FHLAPARATHHPNQYATCRLCGRQ [G9T] | 2.44
20 | FHLAPARADHHPNQYATCRLCGRQ [G9D] | 1.83
21 | FHLAPARAAHHPNQYATCRLCGRQ [G9A] | 1.86
22 | FHLAPARANHHPNQYATCRLCGRQ [G9N] | 2.11
23 | FHLAPARAYHHPNQYATCRLCGRQ [G9Y] | 1.99
24 | FHLAPARAKHHPNQYATCRLCGRQ [G9K] | 1.08

Row | Variant | protein stability index
25 | FHLAPARAMHHPNQYATCRLCGRQ [G9M] | 2.27
26 | FHLAPARAGHHPNQYATCRRCGRQ [L20R] | 1.92
27 | FHLAPARAGHHPNQYATCRVCGRQ [L20V] | 2.27
28 | FHLAPARAGHHPNQYATCRNCGRQ [L20N] | 1.31
29 | FHLAPARAGHHPNQYATCRHCGRQ [L20H] | 1.55
30 | FHLAPARAGHHPNQYATCRCCGRQ [L20C] | 1.54
31 | FHLAPARAGNHPNQYATCRLCGRQ [H10N] | 1.55
32 | FHLAPARAGFHPNQYATCRLCGRQ [H10F] | 1.9
33 | FHLAPARAGQHPNQYATCRLCGRQ [H10Q] | 2.13
34 | FHLAPARAGAHPNQYATCRLCGRQ [H10A] | 1.22
35 | FHLAPARAGMHPNQYATCRLCGRQ [H10M] | 2.81
36 | FHLAPARAGEHPNQYATCRLCGRQ [H10E] | 2.32
37 | FHLAPARAGTHPNQYATCRLCGRQ [H10T] | 3.52
38 | FHLAPARAGIHPNQYATCRLCGRQ [H10I] | 2.3
39 | FHLAPARAGVHPNQYATCRLCGRQ [H10V] | 1.19
40 | FHLARARAGHHPNQYATCRLCGRQ [P5R] | 1.64
41 | FHLAKARAGHHPNQYATCRLCGRQ [P5K] | 1.83
42 | FHLAQARAGHHPNQYATCRLCGRQ [P5Q] | 2.02
43 | FHLALARAGHHPNQYATCRLCGRQ [P5L] | 2
44 | FHLAYARAGHHPNQYATCRLCGRQ [P5Y] | 1.52
45 | FHLACARAGHHPNQYATCRLCGRQ [P5C] | 2.04
46 | FHLASARAGHHPNQYATCRLCGRQ [P5S] | 1.24
47 | FHLAMARAGHHPNQYATCRLCGRQ [P5M] | 1.05
48 | FHLAEARAGHHPNQYATCRLCGRQ [P5E] | 2.36

Row | Variant | protein stability index
49 | FHLAAARAGHHPNQYATCRLCGRQ [P5A] | 2.78
50 | FHLAHARAGHHPNQYATCRLCGRQ [P5H] | 1.99
51 | FHLADARAGHHPNQYATCRLCGRQ [P5D] | 2.83
52 | FHLAIARAGHHPNQYATCRLCGRQ [P5I] | 2.13
53 | FHLAPARAGHHPNEYATCRLCGRQ [Q14E] | 2.16
54 | FHLAPARAGHHPNYYATCRLCGRQ [Q14Y] | 2.31
55 | FHLAPARAGHHPNTYATCRLCGRQ [Q14T] | 1.47
56 | FHLAPARAGHHPNPYATCRLCGRQ [Q14P] | 2.48
57 | FHLAPARAGHHPNQYNTCRLCGRQ [A16N] | 2.38
58 | FHLAPARAGHHPNQYFTCRLCGRQ [A16F] | 2.37
59 | FHLAPARAGHHPNQYGTCRLCGRQ [A16G] | 1.59
60 | FHLAPARAGHHPNQYKTCRLCGRQ [A16K] | 1.03
61 | FHLAPARAGHHPNQYLTCRLCGRQ [A16L] | 1.42
62 | FHLAPARAGHHPNQYATCRLLGRQ [C21L] | 1.95
63 | FHLAPARAGHHPNQYATCRLYGRQ [C21Y] | 1.73
64 | FHLAPARAGHHPNQYATCRLAGRQ [C21A] | 3.59
65 | FHLAPARAGHHPNQYATCRLWGRQ [C21W] | 2.1
66 | FHLAPARAGHHPNQYATCRLTGRQ [C21T] | 2.72
67 | FHLAPARAGHHPNQYATCRLQGRQ [C21Q] | 2.08
68 | FHLAPARAGHHPNQYATCRLPGRQ [C21P] | 2.59
69 | FHLAPARAGHHPNQYATCRLNGRQ [C21N] | 1.96
70 | FHLAPARAGHHPNQYATCRLMGRQ [C21M] | 1.26
71 | FHLAPARAGHHPNQHATCRLCGRQ [Y15H] | 2.14
72 | FHLAPARAGHHPNQRATCRLCGRQ [Y15R] | 1.15

Row | Variant | protein stability index
73 | FHLAPARAGHHPNQQATCRLCGRQ [Y15Q] | 2.65
74 | FHLAPARAGHHPNQIATCRLCGRQ [Y15I] | 1.63
75 | FHLAPARAGHHPNQCATCRLCGRQ [Y15C] | 1.44
76 | FHLAPARAGHHPNQFATCRLCGRQ [Y15F] | 2.54
77 | FHLAPAIAGHHPNQYATCRLCGRQ [R7I] | 1.55
78 | FHLAPAKAGHHPNQYATCRLCGRQ [R7K] | 2.59
79 | FHLAPALAGHHPNQYATCRLCGRQ [R7L] | 1.92
80 | FHLAPAPAGHHPNQYATCRLCGRQ [R7P] | 1.92
81 | FHLAPADAGHHPNQYATCRLCGRQ [R7D] | 2.34
82 | FHLAPANAGHHPNQYATCRLCGRQ [R7N] | 2.15
83 | FHLAPAHAGHHPNQYATCRLCGRQ [R7H] | 2.61
84 | FHLAPAQAGHHPNQYATCRLCGRQ [R7Q] | 1.93
85 | FHLAPARAGHTPNQYATCRLCGRQ [H11T] | 1.95
86 | FHLAPARAGHFPNQYATCRLCGRQ [H11F] | 1.98
87 | FHLAPARAGHKPNQYATCRLCGRQ [H11K] | 1.58
88 | FHLAPARAGHAPNQYATCRLCGRQ [H11A] | 2.48
89 | FHLAPARAGHWPNQYATCRLCGRQ [H11W] | 1.04
90 | FHLAPARAGHPPNQYATCRLCGRQ [H11P] | 1.4
91 | FHLAPARAGHDPNQYATCRLCGRQ [H11D] | 1.46
92 | FHLAPARAGHMPNQYATCRLCGRQ [H11M] | 2.35
93 | FHLAPARAGHEPNQYATCRLCGRQ [H11E] | 2.04
94 | FHLAPARAGHVPNQYATCRLCGRQ [H11V] | 1.98
